According to publication PMC9743467 (Matter, 2022):

Target: Recombinant human ACE2 protein (carrier free) (human, UniProt Q9BYF1)
Assay: zeta potential

Sequence of Recombinant human ACE2 protein (carrier free) (Q9BYF1 18-740): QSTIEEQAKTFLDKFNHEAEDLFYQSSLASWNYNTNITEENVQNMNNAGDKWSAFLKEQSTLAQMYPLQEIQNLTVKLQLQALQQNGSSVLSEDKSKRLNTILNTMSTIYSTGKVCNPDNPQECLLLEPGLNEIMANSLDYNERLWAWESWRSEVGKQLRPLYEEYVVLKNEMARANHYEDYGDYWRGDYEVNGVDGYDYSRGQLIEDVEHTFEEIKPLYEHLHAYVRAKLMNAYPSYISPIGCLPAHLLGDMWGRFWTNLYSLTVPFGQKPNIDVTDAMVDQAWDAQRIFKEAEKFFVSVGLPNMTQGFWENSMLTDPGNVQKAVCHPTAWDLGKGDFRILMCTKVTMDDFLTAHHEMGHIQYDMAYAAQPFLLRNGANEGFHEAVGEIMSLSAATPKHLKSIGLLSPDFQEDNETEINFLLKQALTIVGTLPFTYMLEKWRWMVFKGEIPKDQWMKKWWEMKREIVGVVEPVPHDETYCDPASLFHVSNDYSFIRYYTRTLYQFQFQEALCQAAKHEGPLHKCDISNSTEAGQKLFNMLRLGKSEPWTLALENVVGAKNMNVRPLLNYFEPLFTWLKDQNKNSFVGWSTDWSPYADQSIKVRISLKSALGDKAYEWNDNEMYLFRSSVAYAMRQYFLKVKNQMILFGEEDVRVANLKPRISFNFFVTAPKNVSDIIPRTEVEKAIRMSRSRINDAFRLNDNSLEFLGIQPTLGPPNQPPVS

VVVGKKGGGDYSHCSPLRYYPWWKCTYPDPEGGG [ACE2-binding Ligand peptide amphiphile (C12-VVVGKK-OEG4-GG-DX600)]: binds.
